A short description of series [1]: Activity to degrade phosphoric acid swollen cellulose. Particulars: 1% phosphoric acid swollen cellulose, pH 5.2, enzyme 0.5 μM, 1 hour, 50° C.; glucose generated by each parent endoglucanase = 100%. It counts as biochemical. The gist of the method: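 Enzyme added to phosphoric acid swollen cellulose in 50 mM acetate buffer, pH 5.2; 1 h reaction at 30–85 °C, stopped by pH change if needed. Glucose released measured by glucose kit; activity expressed relative to parent endoglucanase set at 100%.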

The nature of series [2]: Inhibition experiment with vanillin: degradation of phosphoric acid swollen cellulose. The settings on record: enzyme 0.5 μM, 1 hour, 50° C., parent at 0 mM = 100%. It counts as biochemical.
Method: (§1) This substance was diluted using buffer and water to obtain a 2 wt % mixture so that the final concentration of sodium acetate was 50 mM (pH 5.2). This was designated as phosphoric acid swollen cellulose and used for the following examples.
The activity of the wild-type and the mutant endoglucanases to degrade phosphoric acid swollen cellulose in the presence of vanillin was measured. 1% phosphoric acid swollen cellulose/50 mM acetate buffer (pH 5.2) was used as a substrate. Vanillin (Sigma Aldrich) was added at final concentrations of 0, 5, 10, and 15 mM. The enzymes prepared in Reference Example 1 and Example 2 were added at a final concentration of 0.5 μM, followed by 1 hour of enzymatic reaction at 50° C.
A short description of series [3]: Inhibition experiment with ferulic acid: degradation of phosphoric acid swollen cellulose. It counts as biochemical. The settings on record: enzyme 0.5 μM, 1 hour, 50° C., parent at 0 mM = 100%.
Method: as §1
The activity of the wild-type and the mutant endoglucanases to degrade phosphoric acid swollen cellulose was measured in the presence of ferulic acid. 1% phosphoric acid swollen cellulose/50 mM acetate buffer (pH 5.2) was used as a substrate. Ferulic acid (Sigma Aldrich) was added at final concentrations of 0, 5, 10, and 15 mM. The enzymes prepared in Reference Example 1 and Example 2 were each added at a final concentration of 0.5 μM, followed by 1 hour of enzymatic reaction at 50° C.
Series [4] can be described thus: Saccharification of lignocellulose 1 with Celluclast and endoglucanase. The format is biochemical, Rice straw. The settings on record: 5 wt % Lignocellulose 1, pH 5.2, 50° C., 24 hours; 1.0 mg/mL cellulase + 0.1 mg/mL endoglucanase. The procedure, abridged:
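Rice straw pretreated with liquid ammonia (15 min room temperature, then 1 h at 150° C), suspended at 5 wt % in 50 mM acetate pH5.2. Hydrolysed at 50° C for 24 h with 1.0 mg/mL Trichoderma reesei cellulase plus 0.1 mg/mL mutant or wild-type endoglucanase; glucose measured.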

Series [5] in a line: Saccharification of lignocellulose 2 with Celluclast and endoglucanase. The format is biochemical, Rice straw. Particulars: 5 wt % Lignocellulose 2, pH 5.2, 50° C., 24 hours; 1.0 mg/mL cellulase + 0.1 mg/mL endoglucanase. The procedure, abridged:
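Dilute-sulfuric-acid-pretreated rice straw (10 wt% solids, pH ~5) suspended at 5 wt% in 50 mM acetate buffer pH 5.2 was digested 24 h at 50 °C with 1.0 mg/mL Trichoderma reesei Celluclast plus 0.1 mg/mL mutant or wild-type endoglucanase; glucose released was measured.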

Series [6] in a line: Saccharification of lignocellulose 3 with Celluclast and endoglucanase. It counts as biochemical, Rice straw. The settings on record: 5 wt % Lignocellulose 3, pH 5.2, 50° C., 24 hours; 1.0 mg/mL cellulase + 0.1 mg/mL endoglucanase. The gist of the method: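 Hydrothermally pretreated rice straw (180° C., 20 min) at 5 wt % in 50 mM acetate buffer pH 5.2 digested at 50° C. for 24 h with Celluclast 1.0 mg/mL plus mutant or wild-type endoglucanase 0.1 mg/mL. Released glucose measured over time.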

Series [7] can be described thus: Saccharification of lignocellulose 1 with Trichoderma reesei culture solution and endoglucanase. It counts as biochemical, Rice straw. The settings on record: Lignocellulose 1, 24 hours; cellulase 1.0 mg/mL + endoglucanase 0.1 mg/mL + β-glucosidase (Novozyme 188) 0.01 mg/mL. The gist of the method:
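Substrate was liquid-ammonia-treated rice straw (1 h, 150 °C), suspended at 5 wt % in 50 mM acetate buffer pH 5.2 and hydrolysed for 24 h at 50 °C. Enzymes: T. reesei culture solution 1.0 mg/mL, mutant or wild-type endoglucanase 0.1 mg/mL, β-glucosidase 0.01 mg/mL. Glucose released was measured.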

Series [8] can be described thus: Saccharification of lignocellulose 2 with Trichoderma reesei culture solution and endoglucanase. The format is biochemical, Rice straw. The settings on record: Lignocellulose 2, 24 hours; cellulase 1.0 mg/mL + endoglucanase 0.1 mg/mL + β-glucosidase (Novozyme 188) 0.01 mg/mL. The gist of the method:
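Dilute-sulfuric-acid-autoclaved rice straw (pH ~5) suspended at 5 wt % in 50 mM acetate pH 5.2, hydrolysed 24 h at 50 °C. Enzymes: T. reesei culture solution 1.0 mg/mL, mutant or wild-type endoglucanase 0.1 mg/mL, β-glucosidase 0.01 mg/mL. Glucose released was measured.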

Series [9] can be described thus: Saccharification of lignocellulose 3 with Trichoderma reesei culture solution and endoglucanase. It counts as biochemical, Rice straw. Particulars: Lignocellulose 3, 24 hours; cellulase 1.0 mg/mL + endoglucanase 0.1 mg/mL + β-glucosidase (Novozyme 188) 0.01 mg/mL. The gist of the method: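 Hydrothermally treated rice straw (180 °C, 20 min, 10 MPa; solid fraction) suspended at 5 wt % in 50 mM acetate buffer pH 5.2, hydrolysed 24 h at 50 °C. Enzymes: T. reesei culture-solution cellulase 1.0 mg/mL, mutant or wild-type endoglucanase 0.1 mg/mL, β-glucosidase 0.01 mg/mL; glucose generated measured.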

B1: EGIa2 Wild-type: Ignisphaera aggregans-derived endoglucanase 2, SEQ ID NO: 13, parent endoglucanase (protein)
chain: MYREKSCGSTIMDVYYRARGTEIYIERKGVEKPLYIFGINWAGFEWRGRVVGGLHVRNWVEILQQIKSLGFNAIRIPFCAESVKPGVFPAPRTINYALNRDLIGLDSISIMEKIIAKAAELELYILLCFHNISCLIMEPLWYTPLFSEQQFIDTWIRVAKRFSRYWNVIGAELYNNPHGRLPPSYYYESGECATWGMGNPKTDWNLAAERIGRAVLEVAPHWLIIVKGTQLTNPRSDNVPLYPEATYWGENLRAVRDYPVNLPRDKLVYGVDIYGPDVYYMPYFNDPNIFPDKLYLIWDQNWGYVKKELGYPLIIAEFGGLYGRGDPRDVIWHQKLVEYMISNNICHWFYNALNPDNPSTAGLLENDWRTVREDKMALLRRAMDYCRERYGNI
modifications: Ignisphaera aggregans EGIa2
For B1, the Relative activity in series [1] was found to be 100%. Also, the “Relative activity to degrade phosphoric acid swollen cellulose” value is 100% in [2] (vanillin 0 mM); 50% in [2] (vanillin 5 mM); 45% in series [2] (vanillin 10 mM); 40% in [2] (vanillin 15 mM); 100% in series [3] (ferulic acid 0 mM); 60% in series [3] (ferulic acid 5 mM). Also, the “Relative activity to degrade phosphoric acid swollen cellulose” value in series [3] (ferulic acid 10 mM) was 60%; in series [3] (ferulic acid 15 mM) it was 55%. Besides, the “Concentration of glucose generated, Celluclast + Wild-type” value in series [4], in series [5] and in [6] was 11 g/L each time. Also, the “Concentration of glucose generated, Culture solution + Wild-type” value in series [7], in series [8] and in [9] was 8 g/L in each case.

B2: EGIa2 Mutant: mutant EgIa2, SEQ ID NO: 14; residue corresponding to 273rd tryptophan substituted with alanine (protein)
chain: MYREKSCGSTIMDVYYRARGTEIYIERKGVEKPLYIFGINWAGFEWRGRVVGGLHVRNWVEILQQIKSLGFNAIRIPFCAESVKPGVFPAPRTINYALNRDLIGLDSISIMEKIIAKAAELELYILLCFHNISCLIMEPLWYTPLFSEQQFIDTWIRVAKRFSRYWNVIGAELYNNPHGRLPPSYYYESGECATWGMGNPKTDWNLAAERIGRAVLEVAPHWLIIVKGTQLTNPRSDNVPLYPEATYAGENLRAVRDYPVNLPRDKLVYGVDIYGPDVYYMPYFNDPNIFPDKLYLIWDQNWGYVKKELGYPLIIAEFGGLYGRGDPRDVIWHQKLVEYMISNNICHWFYNALNPDNPSTAGLLENDWRTVREDKMALLRRAMDYCRERYGNI
modifications: Ignisphaera aggregans EGla2 W248A
notes: residue corresponding to 273rd tryptophan substituted with alanine
Take B2: the Relative activity in series [1] was determined as 100%. Also, the “Relative activity to degrade phosphoric acid swollen cellulose” value is 100% in series [2] (vanillin 0 mM); 95% in [2] (vanillin 5 mM); 90% in [2] (vanillin 10 mM); 90% in series [2] (vanillin 15 mM); 100% in [3] (ferulic acid 0 mM); 95% in [3] (ferulic acid 5 mM). Also, the “Relative activity to degrade phosphoric acid swollen cellulose” value in [3] (ferulic acid 10 mM) and in series [3] (ferulic acid 15 mM) was 90% each time. Besides, the “Concentration of glucose generated, Celluclast + Mutant” value in series [4] is on record as 16 g/L; in [5] it was 16 g/L; in series [6] it was 14 g/L. Further, the “Concentration of glucose generated, Culture solution + Mutant” value is given as 13 g/L in series [7], 13 g/L in series [8] and 11 g/L in [9].

Source of the values: patent US9193963B2, “Mutant endoglucanase” (Toray Industries, Inc., priority 2011, dated 2015).
